The values that follow come from patent publication US20220193114A1.

In this assay the target is MuSK (wild type, full length, mouse) (mouse) (UniProt Q61006). Nature of the assay: cell-based or functional assay.
Sequence of UniProt Q61006 (Q61006 22-868): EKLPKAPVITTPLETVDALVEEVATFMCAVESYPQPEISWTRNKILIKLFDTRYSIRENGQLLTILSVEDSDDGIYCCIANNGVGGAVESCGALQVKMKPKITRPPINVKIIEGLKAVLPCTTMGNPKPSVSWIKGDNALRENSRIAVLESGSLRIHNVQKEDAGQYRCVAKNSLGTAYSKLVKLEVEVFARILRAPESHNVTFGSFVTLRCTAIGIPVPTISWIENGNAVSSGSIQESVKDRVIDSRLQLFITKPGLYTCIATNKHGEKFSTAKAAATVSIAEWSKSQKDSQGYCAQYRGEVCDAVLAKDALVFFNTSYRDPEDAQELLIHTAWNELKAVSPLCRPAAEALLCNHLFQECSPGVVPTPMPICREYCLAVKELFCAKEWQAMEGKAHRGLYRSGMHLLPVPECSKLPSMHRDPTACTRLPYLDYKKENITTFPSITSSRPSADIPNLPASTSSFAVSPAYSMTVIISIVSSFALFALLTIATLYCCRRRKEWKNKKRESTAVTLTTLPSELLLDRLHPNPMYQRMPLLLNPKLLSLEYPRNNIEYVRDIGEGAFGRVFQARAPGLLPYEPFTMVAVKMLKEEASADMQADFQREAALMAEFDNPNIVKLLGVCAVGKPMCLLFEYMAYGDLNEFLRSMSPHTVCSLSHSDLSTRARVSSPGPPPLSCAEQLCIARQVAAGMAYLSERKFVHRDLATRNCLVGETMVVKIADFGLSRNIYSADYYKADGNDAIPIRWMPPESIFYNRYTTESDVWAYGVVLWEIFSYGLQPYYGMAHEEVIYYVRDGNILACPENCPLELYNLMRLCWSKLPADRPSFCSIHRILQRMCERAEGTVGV

With BMP4 (ligand), the transcription of Wnt11 in response to BMP4 (qRT-PCR, primary myotubes), WT response relative to ΔIg3-MuSK response (fold (WT response / ΔIg3-MuSK response)) turned out to be 2.2 and the transcriptional response of Dok7 to BMP4 (qRT-PCR, primary myotubes), WT response relative to ΔIg3-MuSK response (fold (WT response / ΔIg3-MuSK response)) stood at 1.6.
